{
  "source": "patent US20100189695",
  "proteins": {"B1": {"name": "murine IRAK-1 (endogenous, wild type BMDM cells) (protein)", "chain": "MAGGPGPGEPVVPGAQHFLYEVPPWVMCRFYKVMDALEPADWCQFAALIVRDQTELRLCERSEQRTASVLWPWINRNARVADLVHILTHLQLLRARDIITAWHPPAPVVPPSTAAPRPSSISAGSEAGDWSPRKLQSSASTFLSPAFPGSQTHSESELLQVPLPVSLGPPLPSSAPSSTKSSPESPVSGLQRAHPSPFCWPFCEISQGTCNFSEELRIGEGGFGCVYRAVMRNTTYAVKRLKEEADLEWTMVKQSFLTEVEQLSRFRHPNIVDFAGYCAESGLYCLVYGFLPNGSLEDQLHLQTQACSPLSWPQRLDILLGTARAIQFLHQDSPSLIHGDIKSSNVLLDERLMPKLGDFGLARFSRFAGAKASQSSTVARTSTVRGTLAYLPEEYIKTGRLAVDTDTFSFGVVILETLAGQRAVRTQGAKTKYLKDLIEDEAEEAGVTLKSTQPTLWVGVATDAWAAPIAAQIYKKHLDSRPGPCPPQLGLALAQLACCCMHRRAKKRPPMTQVYKRLEGLQAGPPWELEVAGHGSPSPQENSYMSTTGSAQSGDEPWQPLVVTTRAPAQAAQQLQRSPNQPVESDESVPGLSATLHSWHLTPGSHPSPASFREASCTQGGTTRESSVRSSPGFQPTTMEGSPTGSSSLLSSEPPQIIINPARQKMVQKLALYEEGVLDSLQLLSSGFFPGLDLEPEKSQGPEESDEFQS"}},
  "key": {"NFATc4": {"target": "T1, NFATc4", "T1 sequence (Q14934 1-902, species assumed, looked up)": "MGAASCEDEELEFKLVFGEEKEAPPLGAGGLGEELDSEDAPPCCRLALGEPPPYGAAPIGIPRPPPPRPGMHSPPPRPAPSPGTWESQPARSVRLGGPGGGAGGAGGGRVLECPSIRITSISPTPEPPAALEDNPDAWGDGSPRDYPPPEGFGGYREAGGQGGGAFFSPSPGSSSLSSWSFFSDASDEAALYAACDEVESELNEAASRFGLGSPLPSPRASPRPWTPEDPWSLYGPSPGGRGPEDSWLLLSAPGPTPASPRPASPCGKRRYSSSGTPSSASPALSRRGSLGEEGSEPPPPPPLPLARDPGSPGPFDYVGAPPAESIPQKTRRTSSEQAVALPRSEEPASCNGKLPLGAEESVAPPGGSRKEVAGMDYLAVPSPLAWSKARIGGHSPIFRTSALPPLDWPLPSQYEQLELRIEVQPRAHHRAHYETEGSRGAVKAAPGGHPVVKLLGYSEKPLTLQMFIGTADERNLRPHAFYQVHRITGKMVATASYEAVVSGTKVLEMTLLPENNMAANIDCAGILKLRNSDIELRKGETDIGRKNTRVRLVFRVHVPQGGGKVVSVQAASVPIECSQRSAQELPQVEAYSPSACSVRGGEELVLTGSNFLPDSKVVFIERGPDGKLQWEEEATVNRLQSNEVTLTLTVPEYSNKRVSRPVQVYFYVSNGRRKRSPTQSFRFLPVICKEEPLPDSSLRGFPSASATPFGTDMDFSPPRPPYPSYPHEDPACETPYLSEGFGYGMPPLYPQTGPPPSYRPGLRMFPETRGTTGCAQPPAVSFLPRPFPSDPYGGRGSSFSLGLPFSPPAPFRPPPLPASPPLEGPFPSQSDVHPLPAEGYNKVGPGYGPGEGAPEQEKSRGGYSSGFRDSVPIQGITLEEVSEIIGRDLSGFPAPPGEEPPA"}, "[1]": {"target": "Rac1 (murine BMDM cells), P63001"}, "[2]": {"target": "Tau protein (in bone marrow derived macrophages), P10637", "sequence (P10637 whole entry, looked up)": "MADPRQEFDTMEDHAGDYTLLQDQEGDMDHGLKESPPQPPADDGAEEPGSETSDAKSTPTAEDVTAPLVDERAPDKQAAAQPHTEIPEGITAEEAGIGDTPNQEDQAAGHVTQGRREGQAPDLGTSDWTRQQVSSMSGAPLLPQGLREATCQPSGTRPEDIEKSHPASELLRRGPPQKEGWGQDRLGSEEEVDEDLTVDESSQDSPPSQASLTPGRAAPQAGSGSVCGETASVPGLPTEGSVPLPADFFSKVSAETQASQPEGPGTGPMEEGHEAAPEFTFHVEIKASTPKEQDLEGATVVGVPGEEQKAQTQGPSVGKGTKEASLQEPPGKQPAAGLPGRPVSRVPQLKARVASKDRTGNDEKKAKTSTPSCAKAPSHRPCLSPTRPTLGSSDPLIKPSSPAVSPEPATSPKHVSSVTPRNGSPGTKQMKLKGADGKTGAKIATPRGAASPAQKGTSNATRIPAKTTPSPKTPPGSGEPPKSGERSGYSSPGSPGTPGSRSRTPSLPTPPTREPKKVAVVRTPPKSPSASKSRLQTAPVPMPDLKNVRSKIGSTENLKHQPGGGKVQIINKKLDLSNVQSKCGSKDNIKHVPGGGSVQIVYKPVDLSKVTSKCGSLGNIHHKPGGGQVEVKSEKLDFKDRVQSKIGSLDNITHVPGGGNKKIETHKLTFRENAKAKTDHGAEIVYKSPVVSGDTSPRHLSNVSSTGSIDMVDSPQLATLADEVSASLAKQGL"}},
  "data": [
    {"protein": "B1", "values": [
      {"measurement": "phosphorylated NFATc4 (p-NFATc4) by Western blot", "setting": "NFATc4", "result": "p-NFATc4 was found in the wild type cells (Panel B, lanes 1-3) whereas significantly less was found in the IRAK-1 deficient cells"},
      {"measurement": "Rac1 activity (PBD pull down assay) after LPS treatment for 5 min", "setting": "[1]", "result": "relative Rac1 activity is significantly higher in LPS-induced wild type macrophages and not in IRAK-1 deficient macrophages"},
      {"measurement": "phosphorylated Tau (PHF-Tau) by Western blot after BLP (Pam3CSK4) treatment", "setting": "[2]", "result": "stimulation of wild type cells led to increased Tau phosphorylation. In contrast, Tau phosphorylation is ablated in IRAK-1 deficient cells"}
    ]}
  ]
}
